{"source": "paper PMC10845952", "about": "“Mass spectrometry and split luciferase complementation assays reveal the MecA protein interactome of Streptococcus mutans” (Microbiology Spectrum, 2024)", "data": [{"molecular_target": "T1, MecA fused to the RenG N-terminal domain (1-155) (S. mutans, UniProt Q8DW33 1-240)", "T1 construct": "adaptor protein MecA; S. mutans UA159; source: S. mutans, expressed in live cells; not shown: RenG luciferase N-terminal domain (1-155), C-terminal, kept", "T1 sequence": "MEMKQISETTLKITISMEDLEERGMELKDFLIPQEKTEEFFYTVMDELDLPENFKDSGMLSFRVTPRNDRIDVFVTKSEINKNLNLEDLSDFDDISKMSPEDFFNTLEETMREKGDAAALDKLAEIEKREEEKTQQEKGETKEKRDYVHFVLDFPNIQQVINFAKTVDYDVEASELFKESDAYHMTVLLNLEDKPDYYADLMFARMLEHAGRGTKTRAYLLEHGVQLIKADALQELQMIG", "assay": "split reporter (BiFC, NanoBiT)", "details": "partners not purified", "units": {"relative binding affinity (%)": "%"}, "values": [{"binder": "ThiI fused to the RenG C-terminal domain (156-314) (natural protein, S. mutans, UniProt Q8DUR1 1-405, looked up, tRNA 4-thiouridine(8) synthase, ThiI; S. mutans UA159; also called Thil; not shown: RenG luciferase C-terminal domain (156-314), C-terminal, kept) MQYSEIMVRYGELSTKGKNRMRFINQLKRNMKHVLSIYPEVSIRADRDRAHIYLNGANYVPVAESLKQIFGIQAFSPSYKVEKSVPALEKAVQAIMVELHHEGLTFKISSKRSDHQFELDSRELNQVLGSAVFAVLPDIKAQMNHPNVNLKVEIREEAAYLSYENIKGAGGLPVGTAGKGMLMLSGGIDSPVAGYLALKRGVNIEAVHFASPPYTSPGALKKAQDLTRKLTKFGGNIQFIEVPFTEIQEEIKAKAPEAYLMTLTRRFMMRIADRIREERSGLVIINGESLGQVASQTLESMQAINAVTTTPVIRPVVTMDKLEIIDIAEKIDTFAISIQPFEDCCTIFAPDRPKTNPKIKNVEQYEARLDIEGLVARAVAGINITEITPQEESQDEVDVLIEDLL", "relative binding affinity (%)": "8.92 ± 1.07"}, {"binder": "DnaG with the RenG C-terminal domain (156-314) fused to its N-terminus (natural protein, S. mutans, UniProt Q8DUS6 1-592, looked up, also called N-DnaG) MVVDKEKIKEIKDSINIVDVIGEVVSLSRSGRNYLGLCPFHKEKTPSFNVIEDRQFFHCFGCGRSGDVFKFVEDYRNISFLESVQVLAERSGINVTLQDKSQEVKKEHPHQKLFNINGDANKFYQAVLKTTKVGETARQYLYERGLTDELITYFKIGLAPNEYDYLYQAMLKKYDEDTIINSGLFNLSDSNSIYDAFRNRIMFPLTDEFGHIIGFSGRIWTEEDTSKKLAKYKNTRSTIIFNKSYELYHLDKARTAAKKEHELYLMEGFMDVIAAYRAGIPNAVASMGTALTPEHVKHLRKFTKKVILTYDGDKAGQNAIAKSLNLLSNMAVEIVRIPGQMDPDEFIKENSEEELEKLLKQARISSAEFWIEHLKPENIDNLQAEIDYVEKIAKVIAASPSITAQNTYINKVAEFLPDFDYLQVEQAVNNERLQMRSQISEQESANQQVLIDLPVTKQLTALTKAESQLFHRLLHHDYLLNEFRNRAHFKFTTPELQELYQILKTNGEINAYDLSQLSNQLQETYYRVLEENLPEEIAEDEIRQIEDQIDKCLQRQEMRKQSKAIRESSNHGDVDTAVEGLAALIAQKRNME", "relative binding affinity (%)": "6.97 ± 0.32"}, {"binder": "XseA fused to the RenG C-terminal domain (156-314) (natural protein, S. mutans, UniProt Q8DVB5 1-447, looked up, Exodeoxyribonuclease VII large subunit, XseA; S. mutans UA159; not shown: RenG luciferase C-terminal domain (156-314), C-terminal, kept) MSDYLSVSSLTKYLKLKFDRDPYLERVYLTGQVSNFRRRPNHQYFSLKDEKAVIQATMWSGIYRKLGFELEEGMKINVIGRVQLYEPSGSYSIIIEKAEPDGIGALAVQFEQLKKKLAEAGYFDDRHKQRLSQFVKKIGVVTSPSGAVIRDIITTVSRRFPGVDILLFPTKVQGEGAAQEVADNIRLANERTDLDLLIVGRGGGSIEDLWAFNEEIVVQAIFESHLPIISSVGHETDTTLADFAADRRAATPTAAAELATPVTKADLLAFLKERQMRSYQAVMRLIRQKDEQVKKLQRSVIFRQPERLYDAYVQKLDHLRTHLLTKVRQVYDVYDSKEHLLRQRLLSFNLSGCIQRYQAQLKQDQRLLLSHMSSQYDSKLARFEKAQDALLSLDTTRIVARGYAIVQKDNHIIQSTQQIKKGDRLHLEMKDGQVQVEVENVKQEENI", "relative binding affinity (%)": "3.16 ± 0.25"}]}]}
